Reference: paper PMC8699279, “Exercise-Induced Irisin Decreases Inflammation and Improves NAFLD by Competitive Binding with MD2” (Cells, 2021)

Target: T1, recombinant human MD2 (human, UniProt Q9Y6Y9 19-160)
T1 construct: myeloid differentiation factor 2 (MD2), human, recombinant; No catalogue number is printed; PDB 2E56 was used only for docking; also called rhMD2; myeloid differentiation factor 2; source: bought: R&D Systems
T1 sequence: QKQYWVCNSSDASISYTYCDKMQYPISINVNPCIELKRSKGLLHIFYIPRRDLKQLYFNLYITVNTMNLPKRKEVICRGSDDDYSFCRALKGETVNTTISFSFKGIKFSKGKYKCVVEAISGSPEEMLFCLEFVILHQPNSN
Test: SPR; Biacore T200, CM5 chip, target protein amine-coupled; irisin flowed at seven concentrations, 30 μL/min, 200 s association, 200 s dissociation, 25 °C, PBS with 0.5% P20; global fit with a 1:1 Langmuir model
Conditions: both partners purified

Kd: 1.65 nM
B1: recombinant irisin (ligand)
chain: DSPSAPVNVTVRHLKANSAVVSWDVLEDEVVIGFAISQQKKDVRMLRFIQEVNTTTRSCALWDLEEDTEYIVHVQAISIQGQSPASEPVLFKTPREAEKMASKNKDEVTMKE
modifications: Commercial recombinant protein (Phoenix Pharmaceuticals); catalogue number, host and glycosylation not stated. Limits are the conventional 112-aa mature irisin: residues 32-143 of the 212-aa FNDC5 …
